Source: patent publication US20040138134A1
Read-outs that look alike come from different tables or passages of the source. Where no end group is shown, it is not given here.

What was measured:
[1] = target: natriuretic peptide receptor on C3H10T1/2 cells; test: cell-based or functional assay
[2] = target: natriuretic peptide receptor on C3H10T1/2 cells; test: cell-based or functional assay; remark: listed apart in the source

## CFGLKLDRIGSMSGLGC (not fully specified (bridges); ends and bridges not checked) [CNP 5-22 (17-mer, cyclic domain of CNP)]
[1]
  % relative binding (cGMP, Biotrak EIA, peptide at 10^-6 M): 127%
[2]
  % relative binding (cGMP, Biotrak EIA, peptide at 10^-6 M): 100%
